Test results as given in patent publication US20250250357A1 (NANJING ZAIMING PHARMACEUTICAL, published 2025).
Positions count from the first letter of the chain named.

B1: S009-F2.58.8 (antibody, human IgG1, kappa, V domains shown)
VH: QVQLLQSGAELAKPGASVKLSCKASGYTFTSYWVHWVKQRPGQGLEWIGYINPNSGYTKYNQKFKDKATLTADKSSSTAYMQLSSLTYEDSAVYYCADHYYGSSRDYFDYWGQGTTLTVSS
VL: QIVLTQSPAIMSASPGEKVTMTCSASSSVSYMYWYQQRPGSSPRLLIYDTSNLASGVPVRFSGSGSGTSYSLTISRMEAEDAATYYCQQWNSYPYTFGGGTKLEIKR
notes: human-murine chimeric antibody, human IgG1/kappa constant regions
B2: S009-F2.38.12 (antibody, human IgG1, kappa, V domains shown)
VH: QVQLQQPGTELVKPGASVKLSCKASGYTFTSYWMHWVKQRPGQGLEWIGNINPSNGGTNYNEKIKNKATLTVDKSSSTAYMQLSSLTSEDSAVYYCARWNYYGNYPFDYWGQGTTLTVSS
VL: DIVMTQSQKFMSTTVGDRVSITCKASQNVGTAVAWYQQKPGQSPKLLIYSASNRYTGVPDRFTGSGSGTDFTLTISNMQSEDLADYFCQQYSSYPLTFGAGTKLELKR
notes: as for B1
B3: S009-F7.65.13 (antibody, human IgG1, kappa, V domains shown)
VH: EVQLQQSGPELVKPGTSVKILCKASGDTFTAYNMDWVKQRHGQSLEWIGDINPNTDSTIYNQKFEGKAILTVDKSSSTAYMELRSLTSEDTAVYYCARRKLGRGYFDYWGQGTTLTVSS
VL: B1 VL with A25V, S26N, S27L, S30R, M32I, R38K, Y48H, N91S, Y93F
notes: Human-murine chimeric antibody, human IgG1 heavy and kappa light constant regions
B4: S009-F7.61.21 (antibody, human IgG1, kappa, V domains shown)
VH: DVQLQQSGPELVEPGASVRIPCKAAGHTFTDYNVDWVKQSHGQSLEWIGDVNPNTDGAIYNQKFEGKATLTVDTSSSTAYMELRSLTSEDTAVYFCARRRLGQGGFDSWGQGTTLTVSS
VL: QVVLTQSPAIMSASPGEKVTLTCGASSSLISKYLYWYQQKPGSSPKLWIYSTSNLASGVPARFSGSGSGTSYSLTISSMEAEDAASYFCHQWSSYPYTFGGGTKVEIKR
notes: as for B3
B5: S009-F7.67.12 (antibody, human IgG1, kappa, V domains shown)
VH: QVQLQQPGTELVKPGASVRLSCRASGYSFSSYWMHWVKQRPGQGLEWLGNINPTTGDINYNEKFRNRATLAVDKSSTTAYLQLTSLTSEDSAVYFCVRHDGFLWGQGTTLTVSS
VL: DIQMTQSPASLSASVGETVTITCRASENIYSYLAWYQQKQGKSPQLLVYYAKTLAEGVSSRFSGSGSGTQFSLKINSLQPEDFGTYYCQHQFGTPRTFGGGTKLEIRR
notes: as for B3
B6: Tab106 (YP218, hIgG1) (antibody, V domains shown)
VH: QQQLEESGGGLVKPEGSLTLTCKASGFDLGFYFYACWVRQAPGKGLEWIACIYTAGSGSTYYASWAKGRFTISKASSTTVTLQMTSLAAADTATYFCARSTANTRSTYYLNLWGPGTLVTVSS
VL: DVVMTQTPASVSEPVGGTVTIKCQASQRISSYLSWYQQKPGQRPKLLIFGASTLASGVPSRFKGSGSGTEYTLTISDLECADAATYYCQSYAYFDSNNWHAFGGGTEVVVRT
notes: Control antibody; YP218 VH and VL recombined into human IgG1 CH and CL expression vectors; also called YP218 human IgG1 antibody
B7: S009-F7.66.12 (antibody, human IgG1, kappa, V domains shown)
VH: QIPLQQSGPELVKPGASVRISCKASDYAFSSSWMNWVKQRPEKGLEWIGRIFVESGNTHYNDKFNGKATLTADKSSRTAYIQLSSLTSEDSAVYFCTRENIFYHGHSSWFAYWGQGTLVTVSA
VL: DIVLTQSPASLVVSLGQRATISCRAGESVDDFGISYVHWYQQKPGQPPKLLIYRAANLESGIPARFSGSGSRTDFTLTINPVETDDVAIYYCQQNNKDPFTFGSGTKLEIKR
notes: as for B3

molecular target: T1, human MSLN protein endogenously expressed on OVCAR3 tumor cells (human, UniProt Q13421 296-598); assay: FACS on OVCAR3 cells
T1 construct: whole, on cells; Endogenous target on OVCAR3 cells; kept apart from the recombinant full-length construct; also called mesothelin
T1 sequence (Q13421 other isoform, or with tags, fused parts or gaps): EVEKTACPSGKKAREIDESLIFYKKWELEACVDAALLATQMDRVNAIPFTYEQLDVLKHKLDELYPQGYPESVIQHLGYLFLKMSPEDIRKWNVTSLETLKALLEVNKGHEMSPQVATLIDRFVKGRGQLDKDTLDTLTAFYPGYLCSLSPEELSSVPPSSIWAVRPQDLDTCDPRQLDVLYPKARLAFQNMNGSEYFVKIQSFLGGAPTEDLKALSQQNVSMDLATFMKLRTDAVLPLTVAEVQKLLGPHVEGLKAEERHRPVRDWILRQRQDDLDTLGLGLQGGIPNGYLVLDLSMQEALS
Experimental: (§1) The desired cells were expanded to the logarithmic growth phase in a T-75 cell culture flask. […] After the cells from the previous step were subjected to cell counting, the cell pellet was resuspended to 2×10⁶ cells/mL in a blocking buffer of [PBS+2% (w/w) BSA] and added into a 96-well FACS reaction plate at 50 μL/well. A chimeric antibody (a sample to be tested) was added at 50 μL/well, and the plate was incubated on ice for 2 h. […] After the plate was centrifuged and washed 5 times with a PBST buffer, assay and analysis were performed by FACS (FACS CantoII, purchased from BD). Data analysis was performed by software (Flowjo) to obtain the mean fluorescence intensity (MFI) of the cells.

| EC50 [nM] | Maximum mean fluorescence intensity | Binder |
| --- | --- | --- |
| 1.82 | 13100 | B1 |
| – | 4510 | B2 |

molecular target: T2, human MSLN full-length protein (NCBI: AAH09272.1) expressed on HEK293T-hMSLN-B8 cells (human, UniProt Q13421 296-598); assay: FACS on HEK293T-hMSLN-B8 cells
T2 construct: Whole encoded precursor
T2 sequence (Q13421 other isoform, or with tags, fused parts or gaps limits assumed): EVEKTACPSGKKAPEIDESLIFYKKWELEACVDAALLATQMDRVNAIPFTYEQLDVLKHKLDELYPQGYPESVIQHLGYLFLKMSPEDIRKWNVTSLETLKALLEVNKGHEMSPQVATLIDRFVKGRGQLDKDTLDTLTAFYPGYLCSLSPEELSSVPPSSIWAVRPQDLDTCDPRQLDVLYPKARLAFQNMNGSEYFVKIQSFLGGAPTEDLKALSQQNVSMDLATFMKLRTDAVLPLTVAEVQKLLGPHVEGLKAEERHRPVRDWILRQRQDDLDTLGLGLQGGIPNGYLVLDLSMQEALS
Experimental: as §1

| EC50 [nM] | Maximum mean fluorescence intensity | Binder |
| --- | --- | --- |
| 3.5 | 141000 | B1 |
| ~0.82 | 97700 | B2 |

molecular target: T3, human MSLN-R3 protein (Met487-Ser606 of NCBI AAH09272.1) expressed on HEK293T-hMSLN-R3 cells (human, UniProt Q13421 487-606); assay: FACS on HEK293T-hMSLN-R3 cells
T3 construct: also called Region3
T3 sequence (Q13421 495-614): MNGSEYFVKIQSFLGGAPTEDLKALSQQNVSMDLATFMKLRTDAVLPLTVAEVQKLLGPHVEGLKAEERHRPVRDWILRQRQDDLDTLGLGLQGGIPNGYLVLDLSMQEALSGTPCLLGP
Experimental: as §1

| Maximum mean fluorescence intensity | binding result | Binder |
| --- | --- | --- |
| 366 | no binding | B1 |
| 136 | no binding | B2 |

molecular target: T4, human MSLN-R2-his protein (human, UniProt Q13421 391-486); assay: ELISA on coated antigen, antibody 2 nM
T4 construct: it is put last here; also called human MSLN-R2 protein; hMSLN-R2-his; not shown: His tag
T4 sequence (Q13421 other isoform, or with tags, fused parts or gaps): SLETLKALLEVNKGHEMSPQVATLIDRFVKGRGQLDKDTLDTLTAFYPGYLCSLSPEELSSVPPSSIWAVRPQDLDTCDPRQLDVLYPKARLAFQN

| OD450 [OD] | Binder |
| --- | --- |
| 0.05 | B3 |
| 0.05 | B4 |
| 0.06 | B5 |
| 1.42 | B6 |
| 0.06 | B7 |

molecular target: T5, human MSLN-R3-his protein (human, UniProt Q13421 487-598); assay: ELISA on coated antigen, antibody 2 nM
T5 construct: it is put last here; also called human MSLN-R3 protein; hMSLN-R3-his; not shown: His tag
T5 sequence (Q13421 495-606): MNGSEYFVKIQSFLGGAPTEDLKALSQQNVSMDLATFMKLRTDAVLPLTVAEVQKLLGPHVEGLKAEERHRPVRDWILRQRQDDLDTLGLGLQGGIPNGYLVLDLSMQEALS

| OD450 [OD] | Binder |
| --- | --- |
| 2.39 | B3 |
| 2.17 | B4 |
| 2.45 | B5 |
| 2.33 | B6 |
| 2.25 | B7 |

molecular target: T4, human MSLN-R2-his protein; assay: ELISA on coated antigen, antibody 20 nM
Experimental: (§2) The plate was sealed with a plastic film and incubated at 4° C. overnight. The next day, the plate was washed twice with PBST, and a blocking buffer [PBS+2% (w/w) BSA] was added for blocking at room temperature for 2 h. The blocking buffer was discarded, and a chimeric antibody or negative control antibody serially diluted from 100 nM was added at 50 μL/well. After incubation at 37° C. for 2 h, the plate was washed 3 times with PBST. […] After incubation at 37° C. for 2 h, the plate was washed 5 times with PBST. A TMB substrate was added at 50 μL/well for incubation at room temperature for 5-10 min, and then a stop solution (1.0 N HCl) was added at 50 μL/well.

| OD450 [OD] | Binder |
| --- | --- |
| 0.05 | B3 |
| 0.06 | B4 |
| 0.07 | B5 |
| 2.42 | B6 |
| 0.09 | B7 |

molecular target: T5, human MSLN-R3-his protein; assay: ELISA on coated antigen, antibody 20 nM
Experimental: as §2

| OD450 [OD] | Binder |
| --- | --- |
| 2.34 | B3 |
| 2.39 | B4 |
| 2.49 | B5 |
| 2.26 | B6 |
| 2.37 | B7 |

molecular target: T4, human MSLN-R2-his protein; assay: ELISA on coated antigen, antibody 0.2 nM
Experimental: as §2

| OD450 [OD] | Binder |
| --- | --- |
| 0.05 | B3 |
| 0.05 | B4 |
| 0.06 | B5 |
| 0.47 | B6 |
| 0.05 | B7 |

molecular target: T4, human MSLN-R2-his protein; assay: ELISA on coated antigen, antibody 200 nM
Experimental: as §2

| OD450 [OD] | Binder |
| --- | --- |
| 0.1 | B3 |
| 0.09 | B4 |
| 0.1 | B5 |
| 2.54 | B6 |
| 0.28 | B7 |

molecular target: T5, human MSLN-R3-his protein; assay: ELISA on coated antigen, antibody 0.2 nM
Experimental: as §2

| OD450 [OD] | Binder |
| --- | --- |
| 1.3 | B3 |
| 0.8 | B4 |
| 1.93 | B5 |
| 1.9 | B6 |
| 1.95 | B7 |

molecular target: T5, human MSLN-R3-his protein; assay: ELISA on coated antigen, antibody 200 nM
Experimental: as §2

| OD450 [OD] | Binder |
| --- | --- |
| 2.63 | B3 |
| 2.61 | B4 |
| 2.75 | B5 |
| 2.12 | B6 |
| 2.6 | B7 |

molecular target: T4, human MSLN-R2-his protein; assay: ELISA on coated antigen, antibody 0.02 nM
Experimental: as §2

| OD450 [OD] | Binder |
| --- | --- |
| 0.05 | B3 |
| 0.05 | B4 |
| 0.05 | B5 |
| 0.17 | B6 |
| 0.05 | B7 |

molecular target: T5, human MSLN-R3-his protein; assay: ELISA on coated antigen, antibody 0.02 nM
Experimental: as §2

| OD450 [OD] | Binder |
| --- | --- |
| 0.35 | B3 |
| 0.17 | B4 |
| 0.69 | B5 |
| 0.97 | B6 |
| 0.04 | B7 |

molecular target: T4, human MSLN-R2-his protein; assay: ELISA on coated antigen, antibody 0.002 nM
Experimental: as §2

| OD450 [OD] | Binder |
| --- | --- |
| 0.05 | B3 |
| 0.05 | B4 |
| 0.05 | B5 |
| 0.11 | B6 |
| 0.05 | B7 |

molecular target: T5, human MSLN-R3-his protein; assay: ELISA on coated antigen, antibody 0.002 nM
Experimental: as §2

| OD450 [OD] | Binder |
| --- | --- |
| 0.14 | B3 |
| 0.06 | B4 |
| 0.24 | B5 |
| 0.65 | B6 |
| 0.23 | B7 |

molecular target: T4, human MSLN-R2-his protein; assay: ELISA on coated antigen, antibody 0.0002 nM
Experimental: as §2

| OD450 [OD] | Binder |
| --- | --- |
| 0.05 | B3 |
| 0.05 | B4 |
| 0.05 | B5 |
| 0.12 | B6 |
| 0.27 | B7 |

molecular target: T5, human MSLN-R3-his protein; assay: ELISA on coated antigen, antibody 0.0002 nM
Experimental: as §2

| OD450 [OD] | Binder |
| --- | --- |
| 0.07 | B3 |
| 0.05 | B4 |
| 0.11 | B5 |
| 0.35 | B6 |
| 0.14 | B7 |

molecular target: T4, human MSLN-R2-his protein; assay: ELISA on coated antigen, no antibody (blank, column 'none')
Experimental: as §2

| OD450 [OD] | Binder |
| --- | --- |
| 0.07 | B3 |
| 0.07 | B4 |
| 0.06 | B5 |
| 0.07 | B6 |
| 0.07 | B7 |

molecular target: T5, human MSLN-R3-his protein; assay: as above
Experimental: as §2

| OD450 [OD] | Binder |
| --- | --- |
| 0.07 | B3 |
| 0.06 | B4 |
| 0.07 | B5 |
| 0.06 | B6 |
| 0.06 | B7 |
